# T1: DEAD-box helicase 18 (human, UniProt Q9NVP1 1-670)
# T1 construct: HuProt array protein, full-length recombinant from yeast; also called DDX18
# T1 sequence: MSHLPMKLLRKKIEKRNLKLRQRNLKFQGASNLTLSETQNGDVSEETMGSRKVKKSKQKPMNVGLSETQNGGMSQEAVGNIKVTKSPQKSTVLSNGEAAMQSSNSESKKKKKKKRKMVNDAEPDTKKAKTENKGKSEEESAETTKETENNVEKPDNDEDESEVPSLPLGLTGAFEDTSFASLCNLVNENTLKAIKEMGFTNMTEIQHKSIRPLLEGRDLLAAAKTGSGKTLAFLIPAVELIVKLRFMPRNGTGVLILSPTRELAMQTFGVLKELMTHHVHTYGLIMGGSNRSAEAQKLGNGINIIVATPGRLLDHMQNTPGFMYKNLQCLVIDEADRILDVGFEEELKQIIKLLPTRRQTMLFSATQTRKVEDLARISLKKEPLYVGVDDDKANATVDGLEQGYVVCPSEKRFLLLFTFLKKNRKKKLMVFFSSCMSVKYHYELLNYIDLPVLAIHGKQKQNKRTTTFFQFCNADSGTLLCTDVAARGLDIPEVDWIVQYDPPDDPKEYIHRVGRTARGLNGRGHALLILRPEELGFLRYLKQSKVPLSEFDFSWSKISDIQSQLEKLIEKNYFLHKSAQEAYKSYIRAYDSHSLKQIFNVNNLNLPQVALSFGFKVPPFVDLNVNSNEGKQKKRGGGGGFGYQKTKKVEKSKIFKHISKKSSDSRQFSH
# T2: geminin DNA replication inhibitor, transcript variant 1 (human, UniProt O75496 1-209)
# T2 construct: HuProt array protein, full-length recombinant from yeast; also called GMNN
# T2 sequence: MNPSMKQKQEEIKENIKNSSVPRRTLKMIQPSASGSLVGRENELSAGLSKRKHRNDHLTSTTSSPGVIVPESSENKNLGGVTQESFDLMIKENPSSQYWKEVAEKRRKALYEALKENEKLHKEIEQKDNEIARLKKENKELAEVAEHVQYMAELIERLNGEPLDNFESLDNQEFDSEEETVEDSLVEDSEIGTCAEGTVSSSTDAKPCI
# T3: FA complementation group G (human, UniProt O15287 1-622)
# T3 construct: HuProt array protein, full-length recombinant from yeast; also called FANCG
# T3 sequence: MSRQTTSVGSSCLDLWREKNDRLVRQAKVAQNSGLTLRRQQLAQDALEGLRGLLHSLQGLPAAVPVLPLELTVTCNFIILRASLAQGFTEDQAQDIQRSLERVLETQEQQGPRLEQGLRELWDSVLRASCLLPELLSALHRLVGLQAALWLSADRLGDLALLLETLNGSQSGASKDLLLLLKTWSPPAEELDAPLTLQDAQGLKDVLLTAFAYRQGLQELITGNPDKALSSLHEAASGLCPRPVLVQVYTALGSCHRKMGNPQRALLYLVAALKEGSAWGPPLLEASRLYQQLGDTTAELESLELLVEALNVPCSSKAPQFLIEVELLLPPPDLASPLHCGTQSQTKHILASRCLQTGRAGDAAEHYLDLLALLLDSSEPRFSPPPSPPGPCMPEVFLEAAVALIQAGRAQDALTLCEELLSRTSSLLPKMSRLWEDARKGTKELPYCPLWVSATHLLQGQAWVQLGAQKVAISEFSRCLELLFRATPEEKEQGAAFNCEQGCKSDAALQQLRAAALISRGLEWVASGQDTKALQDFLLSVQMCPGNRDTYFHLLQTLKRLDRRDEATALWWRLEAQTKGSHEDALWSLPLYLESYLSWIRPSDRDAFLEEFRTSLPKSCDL
# T4: butyrophilin subfamily 1 member A1 (human, UniProt Q13410 27-526)
# T4 construct: HuProt array protein, full-length recombinant from yeast; also called BTN1A1
# T4 sequence: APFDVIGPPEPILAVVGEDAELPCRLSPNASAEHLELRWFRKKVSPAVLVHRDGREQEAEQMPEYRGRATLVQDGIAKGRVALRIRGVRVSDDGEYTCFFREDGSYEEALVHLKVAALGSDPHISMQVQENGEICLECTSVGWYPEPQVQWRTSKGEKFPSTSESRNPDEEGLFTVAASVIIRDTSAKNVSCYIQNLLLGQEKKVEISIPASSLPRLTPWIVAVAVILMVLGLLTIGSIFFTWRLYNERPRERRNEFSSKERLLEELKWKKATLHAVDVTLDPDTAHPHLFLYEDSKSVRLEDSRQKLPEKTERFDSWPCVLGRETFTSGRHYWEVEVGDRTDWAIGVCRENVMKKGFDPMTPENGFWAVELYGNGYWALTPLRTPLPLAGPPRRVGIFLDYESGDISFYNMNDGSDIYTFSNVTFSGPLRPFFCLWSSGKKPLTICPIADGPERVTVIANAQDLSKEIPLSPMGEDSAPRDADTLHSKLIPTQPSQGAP
# T5: SATB homeobox 2, transcript variant 2 (human, UniProt Q9UPW6 1-733)
# T5 construct: HuProt array protein, full-length recombinant from yeast; also called SATB2
# T5 sequence: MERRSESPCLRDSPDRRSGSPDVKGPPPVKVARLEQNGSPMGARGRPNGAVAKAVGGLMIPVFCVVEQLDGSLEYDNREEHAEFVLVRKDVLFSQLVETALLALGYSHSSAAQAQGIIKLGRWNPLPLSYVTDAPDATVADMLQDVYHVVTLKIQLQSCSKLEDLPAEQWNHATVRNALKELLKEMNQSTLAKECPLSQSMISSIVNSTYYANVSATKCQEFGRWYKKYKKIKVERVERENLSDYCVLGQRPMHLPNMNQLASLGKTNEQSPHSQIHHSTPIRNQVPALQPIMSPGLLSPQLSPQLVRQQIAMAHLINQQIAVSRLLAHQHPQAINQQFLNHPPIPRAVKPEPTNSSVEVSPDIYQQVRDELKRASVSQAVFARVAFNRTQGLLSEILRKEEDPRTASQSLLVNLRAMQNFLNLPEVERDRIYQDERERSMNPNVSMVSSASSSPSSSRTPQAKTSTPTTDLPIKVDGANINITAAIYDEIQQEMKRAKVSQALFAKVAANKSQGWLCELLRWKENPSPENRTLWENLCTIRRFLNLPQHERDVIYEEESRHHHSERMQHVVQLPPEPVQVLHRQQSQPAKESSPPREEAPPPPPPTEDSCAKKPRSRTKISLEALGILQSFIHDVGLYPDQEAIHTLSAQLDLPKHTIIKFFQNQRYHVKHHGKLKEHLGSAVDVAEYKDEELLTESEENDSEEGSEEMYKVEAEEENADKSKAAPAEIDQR
# T6: ganglioside induced differentiation associated protein 1, transcript variant 2 (human, UniProt Q8TB36 69-358)
# T6 construct: HuProt array protein, full-length recombinant from yeast; also called GDAP1
# T6 sequence: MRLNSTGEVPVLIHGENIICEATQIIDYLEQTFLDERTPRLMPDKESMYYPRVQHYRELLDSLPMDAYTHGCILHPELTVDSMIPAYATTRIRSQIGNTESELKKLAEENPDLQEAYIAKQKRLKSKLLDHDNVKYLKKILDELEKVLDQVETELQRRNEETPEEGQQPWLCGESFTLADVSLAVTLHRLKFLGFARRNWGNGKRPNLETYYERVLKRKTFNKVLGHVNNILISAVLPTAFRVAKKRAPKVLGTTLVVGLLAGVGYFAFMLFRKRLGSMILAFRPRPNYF
# T7: endosome associated trafficking regulator 1, transcript variant 2 (human, UniProt Q96C92 59-435)
# T7 construct: HuProt array protein, full-length recombinant from yeast; also called SDCCAG3
# T7 chain: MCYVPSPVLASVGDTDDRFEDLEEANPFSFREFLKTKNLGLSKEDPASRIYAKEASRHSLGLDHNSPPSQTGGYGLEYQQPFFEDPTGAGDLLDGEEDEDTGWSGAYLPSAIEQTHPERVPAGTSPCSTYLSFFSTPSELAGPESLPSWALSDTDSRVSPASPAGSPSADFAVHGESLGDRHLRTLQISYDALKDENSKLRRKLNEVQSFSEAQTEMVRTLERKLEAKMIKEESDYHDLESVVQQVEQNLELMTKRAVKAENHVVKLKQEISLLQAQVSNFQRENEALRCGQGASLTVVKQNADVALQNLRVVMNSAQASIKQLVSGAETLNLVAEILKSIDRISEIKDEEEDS
# T8: charged multivesicular body protein 4B (human, UniProt Q9H444 2-224)
# T8 construct: HuProt array protein, full-length recombinant from yeast; also called CHMP4B
# T8 sequence: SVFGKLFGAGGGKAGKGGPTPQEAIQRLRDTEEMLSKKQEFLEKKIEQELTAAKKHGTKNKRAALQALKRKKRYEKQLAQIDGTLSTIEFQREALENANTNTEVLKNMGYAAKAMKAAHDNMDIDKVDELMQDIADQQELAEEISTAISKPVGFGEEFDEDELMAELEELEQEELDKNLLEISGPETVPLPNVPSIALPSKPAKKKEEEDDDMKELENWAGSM
# Experiments:
# DEAD-box helicase 18 = molecular target: T1, DEAD-box helicase 18
# [1] = molecular target: T9, syntaxin 1A, transcript variant 1 (human, UniProt Q16623 1-288)
# T9 construct: HuProt array protein, full-length recombinant from yeast; also called STX1A
# T9 sequence (Q16623 whole entry, change not shown): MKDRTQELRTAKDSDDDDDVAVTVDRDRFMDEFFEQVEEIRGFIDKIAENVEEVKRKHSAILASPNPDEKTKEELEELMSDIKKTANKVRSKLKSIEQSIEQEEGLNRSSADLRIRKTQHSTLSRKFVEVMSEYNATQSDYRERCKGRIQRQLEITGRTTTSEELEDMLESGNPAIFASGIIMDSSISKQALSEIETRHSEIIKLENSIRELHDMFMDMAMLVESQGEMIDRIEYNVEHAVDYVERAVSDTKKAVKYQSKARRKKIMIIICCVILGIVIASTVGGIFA
# [2] = molecular target: T2, geminin DNA replication inhibitor, …
# [3] = molecular target: T3, FA complementation group G
# [4] = molecular target: T10, X-linked inhibitor of apoptosis, transcript variant 2 (human, UniProt P98170 1-497)
# T10 construct: HuProt array protein, full-length recombinant from yeast; also called XIAP
# T10 sequence (P98170 whole entry, change not shown): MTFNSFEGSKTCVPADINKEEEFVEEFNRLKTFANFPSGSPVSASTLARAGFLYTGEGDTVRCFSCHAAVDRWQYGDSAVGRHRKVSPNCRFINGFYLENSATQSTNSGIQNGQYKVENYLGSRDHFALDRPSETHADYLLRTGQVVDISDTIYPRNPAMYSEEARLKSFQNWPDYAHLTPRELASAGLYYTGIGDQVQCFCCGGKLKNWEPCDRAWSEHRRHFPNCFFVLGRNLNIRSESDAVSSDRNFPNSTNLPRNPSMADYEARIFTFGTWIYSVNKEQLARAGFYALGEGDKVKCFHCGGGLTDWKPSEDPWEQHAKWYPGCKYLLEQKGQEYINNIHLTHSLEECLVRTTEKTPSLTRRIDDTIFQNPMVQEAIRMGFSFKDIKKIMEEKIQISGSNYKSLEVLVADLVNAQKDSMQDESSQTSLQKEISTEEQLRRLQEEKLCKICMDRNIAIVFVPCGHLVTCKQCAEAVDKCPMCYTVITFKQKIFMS
# [5] = molecular target: T4, butyrophilin subfamily 1 member A1
# zinc finger protein 8 = molecular target: T11, zinc finger protein 8 (human, UniProt P17098 1-575)
# T11 construct: HuProt array protein, full-length recombinant from yeast; also called ZNF8
# T11 sequence (P17098 whole entry): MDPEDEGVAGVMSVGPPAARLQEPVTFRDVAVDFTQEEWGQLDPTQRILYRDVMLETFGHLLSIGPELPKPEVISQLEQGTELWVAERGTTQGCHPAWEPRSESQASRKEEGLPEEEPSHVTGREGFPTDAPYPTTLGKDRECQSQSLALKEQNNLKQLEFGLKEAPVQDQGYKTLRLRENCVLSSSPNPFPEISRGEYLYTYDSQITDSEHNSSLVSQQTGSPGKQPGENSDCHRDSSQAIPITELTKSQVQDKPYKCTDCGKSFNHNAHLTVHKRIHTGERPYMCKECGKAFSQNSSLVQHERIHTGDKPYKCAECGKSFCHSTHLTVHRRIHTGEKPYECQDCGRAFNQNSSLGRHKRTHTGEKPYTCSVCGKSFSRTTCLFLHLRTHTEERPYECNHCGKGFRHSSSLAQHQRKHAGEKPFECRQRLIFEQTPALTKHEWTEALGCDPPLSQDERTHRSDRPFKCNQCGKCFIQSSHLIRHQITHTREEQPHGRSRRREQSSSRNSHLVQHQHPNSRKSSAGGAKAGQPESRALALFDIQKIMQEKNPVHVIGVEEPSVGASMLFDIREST
# [6] = molecular target: T5, SATB homeobox 2, transcript variant 2
# [7] = molecular target: T6, ganglioside induced differentiation …
# [8] = molecular target: T7, endosome associated trafficking …
# [9] = molecular target: T8, charged multivesicular body protein 4B
binder,measurement,setting,value
"TBRE1027 (antibody, V domains shown, detected with anti-human IgG Fc) VH: EVQLLESGGGLVQPGGSLRLSCAASGFTFSSYAMSWVRQAPGKGLEWVSTISGSGHSTYYADSVKGRFTISRDNSKNTLYLQMNSLRAEDTAVYYCAKSTLGGGFDFWGQGTLVTVSS VL: DIQMTQSPFSLSASVGDRVTITCRASQSISSYLNWYQQKPGKAPKLLIYAASSLQSGVPSRFSGSGSGTDFTLTISSLQPEDFATYYCHQSYSTSLTFGGGTKVEIKR",binding result,DEAD-box helicase 18,binds
same,binding result,[1],binds
same,binding result,[2],binds
"TBRE1024 (antibody, V domains shown, detected with anti-human IgG Fc) VH: PVQLQESGPGLVKPSETLSLTCTVSGGSISSDNYYWSWLRQHPGKGLEWIGYIYFSVTTYYNPSLKSRVTISLDTSKNQFSLKLSSVTAADTAVYYCASGYVSFDLWGQGTLVTVSS VL: not shown",binding result,[3],binds
"TBRE1032 (antibody, V domains shown, detected with anti-human IgG Fc) VH: EVQLVESGGGLVQPGGSLRLSCAASGFTFSSYDFHWVRQPTGKGLEWVSAIGTAGDTLYLDSVKGRFTISRENAKNSLYLQMNSLRAGDTAVYYCARVNWNSDTFDSWGQGTLVTVSS VL: VSSELTQDPAVSVALGQTVRITCQGDSLRRYYASWYQQKAGQAPILVIYGENNRPSGIPDRFSGSGSGNTASLTITGAQAEDEADYYCDSRDSSGNLVVFGGGTKLTVL",binding result,[4],binds
"TBRE1013 (antibody, V domains shown, detected with anti-human IgG Fc) VH: EVQLVESGGGLVKPGGSLRLSCAGSGFSFSSYSMNWVRQAPGKGLEWVSSISSKSSSKNYIDSVKNRFIISRDNAKNSLYLQMNSLRAEDTAVYYCARDLELIIAAGAPLDHWGQGTLVTVSS VL: DIQMTQSPSSLSASVGDRVTITCRASQSIKNYVNWYQQKPGEAPNLLIFAASNLQSGVPSRFTGSGSGTDFSLTISSLQPEDFAAYYCQQTYSHPRTFGQGTRVEIKR",binding result,[5],binds
"TBRE1017 (antibody, V domains shown, detected with anti-human IgG Fc) VH: QVQLVQSGAEVKKPGASVKVSCKASGYNFRDYYMHWVRQAPGQGLEWMGWINPNSGGTISAQNFQGRVTMTRDTSISTAYMEVNSLRSDDTAVYYCAVGMVTDGFEIWGQGTLVTVSS VL: PYELTQPPSVSVSPGQTARITCSGDALPNENAFWYQQKPGQAPVLVIYEDIKRPSGIPERFSGSSSGTTVTLTISGVQAEDEADYYCQSVDITSTWVFGGGTKLTVLG",binding result,zinc finger protein 8,binds
same,binding result,[6],binds
same,binding result,[7],binds
"TBRE1034 (antibody, V domains shown, detected with anti-human IgG Fc) VH: QVQLVESGGGLVEPGGSLRLSCAASGFTFSDYYMSWIRQAPGKRLEWISHMSSGGNRRHYADSVRGRFTISRDNAKNSLYLQMNSMRADDTAVYYCARDKRSGMTSDRRIDYWGQGTRVTVSS VL: DIQMTQSPSSLSASVGDRITITCRASQSVGTYLSWFQQKPGKAPKLLIYAASSLQSGVPSRFSGSGSGTDFTLTISSLQPEDFATYFCQQSYSVPPWTFGQGTKVEIKR",binding result,[8],binds
same,binding result,[9],binds

# Source: patent US20220204643A1 (published 2022)
